T1: human CXCR3 (hCXCR3) on Ba/F3 transfectant cells (human, UniProt P49682 1-368)
T1 sequence: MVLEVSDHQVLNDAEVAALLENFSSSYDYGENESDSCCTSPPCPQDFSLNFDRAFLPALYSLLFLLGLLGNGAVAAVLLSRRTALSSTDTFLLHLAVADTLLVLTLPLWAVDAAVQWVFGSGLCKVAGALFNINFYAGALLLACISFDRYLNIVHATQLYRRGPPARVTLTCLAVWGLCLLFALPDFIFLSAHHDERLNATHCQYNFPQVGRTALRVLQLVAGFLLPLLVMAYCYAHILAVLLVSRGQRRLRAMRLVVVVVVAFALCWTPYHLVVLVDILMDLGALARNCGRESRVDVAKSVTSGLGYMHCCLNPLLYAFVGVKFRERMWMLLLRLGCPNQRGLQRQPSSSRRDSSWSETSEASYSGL


What follows are binders tested against T1, human CXCR3 (hCXCR3) on Ba/F3 … (assay: cell-based or functional assay).

| Binder | Luminescence value at 33 nM | Luminescence value at 100 nM | Luminescence value at 300 nM | Activity retention rate at 33 nM [%] | Activity retention rate at 100 nM [%] | Activity retention rate at 300 nM [%] |
| --- | --- | --- | --- | --- | --- | --- |
| hCXCL11-G1T4k.one//VHn-G1T4h.one.H435R (Fc fusion) chain 1: FPMFKRGRCLCIGPGVKAVKVADIEKASIMYPSNNCDKIEVIITLKENKGQRCLNPKSKQARLIIKKVERKNFEPKSSDKTHTCPPCPAPELRRGPSVFLFPPKPKDTLMISRTPEVTCVVVDVSHEDPEVKFNWYVDGVEVHNAKTKPREEQYNSTYRVVSVLTVLHQDWLNGKEYKCKVSNKGLPSSIEKTISKAKGQPREPQVCTLPPSREEMTKNQVSLWCLVKGFYPSDIAVEWESNGQPENNYKTTPPVLDSDGSFFLYSKLTVDKSRWQEGNVFSCSVMHEALHNHYTQKSLSLSP chain 2: EPKSSDKTHTCPPCPAPELRRGPSVFLFPPKPKDTLMISRTPEVTCVVVDVSHEDPEVKFNWYVDGVEVHNAKTKPREEQYNSTYRVVSVLTVLHQDWLNGKEYKCKVSNKGLPSSIEKTISKAKGQPREPQVYTLPPSRCEMTKNQVSLSCAVKGFYPSDIAVEWESNGQPENNYKTTPPVLDSDGSFFLVSKLTVDKSRWQEGNVFSCSVMHEALHNRYTQKSLSLSP | 7.68e+06 | 1.67e+07 | 1.24e+07 | – | – | – |
| hCXCL11.0004-G1T4k.one//VHn-G1T4h.one.H435R (Fc fusion) chain 1: FDMFKRGRCLCIGPGVKAVKVADIEKASIMYPSNNCDKIEVIITLKENKGQRCLNPKSKQARLIIKKVERKNFEPKSSDKTHTCPPCPAPELRRGPSVFLFPPKPKDTLMISRTPEVTCVVVDVSHEDPEVKFNWYVDGVEVHNAKTKPREEQYNSTYRVVSVLTVLHQDWLNGKEYKCKVSNKGLPSSIEKTISKAKGQPREPQVCTLPPSREEMTKNQVSLWCLVKGFYPSDIAVEWESNGQPENNYKTTPPVLDSDGSFFLYSKLTVDKSRWQEGNVFSCSVMHEALHNHYTQKSLSLSP chain 2: EPKSSDKTHTCPPCPAPELRRGPSVFLFPPKPKDTLMISRTPEVTCVVVDVSHEDPEVKFNWYVDGVEVHNAKTKPREEQYNSTYRVVSVLTVLHQDWLNGKEYKCKVSNKGLPSSIEKTISKAKGQPREPQVYTLPPSRCEMTKNQVSLSCAVKGFYPSDIAVEWESNGQPENNYKTTPPVLDSDGSFFLVSKLTVDKSRWQEGNVFSCSVMHEALHNRYTQKSLSLSP | 3.15e+06 | 9.44e+06 | 5.24e+06 | 41 | 57 | 42 |
| hCXCL11.0003-G1T4k.one//VHn-G1T4h.one.H435R (Fc fusion) chain 1: FAMFKRGRCLCIGPGVKAVKVADIEKASIMYPSNNCDKIEVIITLKENKGQRCLNPKSKQARLIIKKVERKNFEPKSSDKTHTCPPCPAPELRRGPSVFLFPPKPKDTLMISRTPEVTCVVVDVSHEDPEVKFNWYVDGVEVHNAKTKPREEQYNSTYRVVSVLTVLHQDWLNGKEYKCKVSNKGLPSSIEKTISKAKGQPREPQVCTLPPSREEMTKNQVSLWCLVKGFYPSDIAVEWESNGQPENNYKTTPPVLDSDGSFFLYSKLTVDKSRWQEGNVFSCSVMHEALHNHYTQKSLSLSP chain 2: EPKSSDKTHTCPPCPAPELRRGPSVFLFPPKPKDTLMISRTPEVTCVVVDVSHEDPEVKFNWYVDGVEVHNAKTKPREEQYNSTYRVVSVLTVLHQDWLNGKEYKCKVSNKGLPSSIEKTISKAKGQPREPQVYTLPPSRCEMTKNQVSLSCAVKGFYPSDIAVEWESNGQPENNYKTTPPVLDSDGSFFLVSKLTVDKSRWQEGNVFSCSVMHEALHNRYTQKSLSLSP | 3.76e+06 | 1.17e+07 | 1.12e+07 | 49 | 70 | 90 |
| hCXCL11.0006-G1T4k.one//VHn-G1T4h.one.H435R (Fc fusion) chain 1: FFMFKRGRCLCIGPGVKAVKVADIEKASIMYPSNNCDKIEVIITLKENKGQRCLNPKSKQARLIIKKVERKNFEPKSSDKTHTCPPCPAPELRRGPSVFLFPPKPKDTLMISRTPEVTCVVVDVSHEDPEVKFNWYVDGVEVHNAKTKPREEQYNSTYRVVSVLTVLHQDWLNGKEYKCKVSNKGLPSSIEKTISKAKGQPREPQVCTLPPSREEMTKNQVSLWCLVKGFYPSDIAVEWESNGQPENNYKTTPPVLDSDGSFFLYSKLTVDKSRWQEGNVFSCSVMHEALHNHYTQKSLSLSP chain 2: EPKSSDKTHTCPPCPAPELRRGPSVFLFPPKPKDTLMISRTPEVTCVVVDVSHEDPEVKFNWYVDGVEVHNAKTKPREEQYNSTYRVVSVLTVLHQDWLNGKEYKCKVSNKGLPSSIEKTISKAKGQPREPQVYTLPPSRCEMTKNQVSLSCAVKGFYPSDIAVEWESNGQPENNYKTTPPVLDSDGSFFLVSKLTVDKSRWQEGNVFSCSVMHEALHNRYTQKSLSLSP | 326000 | 4.55e+06 | 9.79e+06 | 4 | 27 | 79 |
| hCXCL11.0005-G1T4k.one//VHn-G1T4h.one.H435R (Fc fusion) chain 1: FEMFKRGRCLCIGPGVKAVKVADIEKASIMYPSNNCDKIEVIITLKENKGQRCLNPKSKQARLIIKKVERKNFEPKSSDKTHTCPPCPAPELRRGPSVFLFPPKPKDTLMISRTPEVTCVVVDVSHEDPEVKFNWYVDGVEVHNAKTKPREEQYNSTYRVVSVLTVLHQDWLNGKEYKCKVSNKGLPSSIEKTISKAKGQPREPQVCTLPPSREEMTKNQVSLWCLVKGFYPSDIAVEWESNGQPENNYKTTPPVLDSDGSFFLYSKLTVDKSRWQEGNVFSCSVMHEALHNHYTQKSLSLSP chain 2: EPKSSDKTHTCPPCPAPELRRGPSVFLFPPKPKDTLMISRTPEVTCVVVDVSHEDPEVKFNWYVDGVEVHNAKTKPREEQYNSTYRVVSVLTVLHQDWLNGKEYKCKVSNKGLPSSIEKTISKAKGQPREPQVYTLPPSRCEMTKNQVSLSCAVKGFYPSDIAVEWESNGQPENNYKTTPPVLDSDGSFFLVSKLTVDKSRWQEGNVFSCSVMHEALHNRYTQKSLSLSP | 3.11e+06 | 9.59e+06 | 6.03e+06 | 40 | 57 | 49 |

Results, then the binder that gave them:

| Luminescence value at 33 nM | Luminescence value at 100 nM | Luminescence value at 300 nM | Activity retention rate at 33 nM [%] | Activity retention rate at 100 nM [%] | Activity retention rate at 300 nM [%] | Binder |
| --- | --- | --- | --- | --- | --- | --- |
| 3.47e+06 | 1.02e+07 | 9.71e+06 | 45 | 61 | 78 | hCXCL11.0007-G1T4k.one//VHn-G1T4h.one.H435R (Fc fusion) chain 1: FGMFKRGRCLCIGPGVKAVKVADIEKASIMYPSNNCDKIEVIITLKENKGQRCLNPKSKQARLIIKKVERKNFEPKSSDKTHTCPPCPAPELRRGPSVFLFPPKPKDTLMISRTPEVTCVVVDVSHEDPEVKFNWYVDGVEVHNAKTKPREEQYNSTYRVVSVLTVLHQDWLNGKEYKCKVSNKGLPSSIEKTISKAKGQPREPQVCTLPPSREEMTKNQVSLWCLVKGFYPSDIAVEWESNGQPENNYKTTPPVLDSDGSFFLYSKLTVDKSRWQEGNVFSCSVMHEALHNHYTQKSLSLSP chain 2: EPKSSDKTHTCPPCPAPELRRGPSVFLFPPKPKDTLMISRTPEVTCVVVDVSHEDPEVKFNWYVDGVEVHNAKTKPREEQYNSTYRVVSVLTVLHQDWLNGKEYKCKVSNKGLPSSIEKTISKAKGQPREPQVYTLPPSRCEMTKNQVSLSCAVKGFYPSDIAVEWESNGQPENNYKTTPPVLDSDGSFFLVSKLTVDKSRWQEGNVFSCSVMHEALHNRYTQKSLSLSP |
| 966000 | 6.79e+06 | 1.35e+07 | 13 | 41 | 109 | hCXCL11.0009-G1T4k.one//VHn-G1T4h.one.H435R (Fc fusion) chain 1: FIMFKRGRCLCIGPGVKAVKVADIEKASIMYPSNNCDKIEVIITLKENKGQRCLNPKSKQARLIIKKVERKNFEPKSSDKTHTCPPCPAPELRRGPSVFLFPPKPKDTLMISRTPEVTCVVVDVSHEDPEVKFNWYVDGVEVHNAKTKPREEQYNSTYRVVSVLTVLHQDWLNGKEYKCKVSNKGLPSSIEKTISKAKGQPREPQVCTLPPSREEMTKNQVSLWCLVKGFYPSDIAVEWESNGQPENNYKTTPPVLDSDGSFFLYSKLTVDKSRWQEGNVFSCSVMHEALHNHYTQKSLSLSP chain 2: EPKSSDKTHTCPPCPAPELRRGPSVFLFPPKPKDTLMISRTPEVTCVVVDVSHEDPEVKFNWYVDGVEVHNAKTKPREEQYNSTYRVVSVLTVLHQDWLNGKEYKCKVSNKGLPSSIEKTISKAKGQPREPQVYTLPPSRCEMTKNQVSLSCAVKGFYPSDIAVEWESNGQPENNYKTTPPVLDSDGSFFLVSKLTVDKSRWQEGNVFSCSVMHEALHNRYTQKSLSLSP |
| 3.4e+06 | 1.22e+07 | 1.34e+07 | 44 | 73 | 108 | hCXCL11.0008-G1T4k.one//VHn-G1T4h.one.H435R (Fc fusion) chain 1: FHMFKRGRCLCIGPGVKAVKVADIEKASIMYPSNNCDKIEVIITLKENKGQRCLNPKSKQARLIIKKVERKNFEPKSSDKTHTCPPCPAPELRRGPSVFLFPPKPKDTLMISRTPEVTCVVVDVSHEDPEVKFNWYVDGVEVHNAKTKPREEQYNSTYRVVSVLTVLHQDWLNGKEYKCKVSNKGLPSSIEKTISKAKGQPREPQVCTLPPSREEMTKNQVSLWCLVKGFYPSDIAVEWESNGQPENNYKTTPPVLDSDGSFFLYSKLTVDKSRWQEGNVFSCSVMHEALHNHYTQKSLSLSP chain 2: EPKSSDKTHTCPPCPAPELRRGPSVFLFPPKPKDTLMISRTPEVTCVVVDVSHEDPEVKFNWYVDGVEVHNAKTKPREEQYNSTYRVVSVLTVLHQDWLNGKEYKCKVSNKGLPSSIEKTISKAKGQPREPQVYTLPPSRCEMTKNQVSLSCAVKGFYPSDIAVEWESNGQPENNYKTTPPVLDSDGSFFLVSKLTVDKSRWQEGNVFSCSVMHEALHNRYTQKSLSLSP |

From patent US20260217779A1 (Chugai, published 2026)
